Experimental data as given in paper PMC10319324.
Residue numbers refer to the chain shown, from its start. In names and notes the source's numbering stands.

Key:
[1] = biological target: bovine 20S proteasome (bovine) (UniProt Q2YDE4)
[2] = biological target: T1, recombinant wildtype human PI31 (Proteasome Inhibitor of 31,000 Da) (human), Q92530; assay: mass photometry; monomer to dimer; His-PI31 diluted to 40 nM total monomer in PBS, recorded immediately after mixing (TwoMP, Refeyn); peaks at 36 to 37 and 56 to 59 kDa; settings: remark: other sources report otherwise
T1 chain: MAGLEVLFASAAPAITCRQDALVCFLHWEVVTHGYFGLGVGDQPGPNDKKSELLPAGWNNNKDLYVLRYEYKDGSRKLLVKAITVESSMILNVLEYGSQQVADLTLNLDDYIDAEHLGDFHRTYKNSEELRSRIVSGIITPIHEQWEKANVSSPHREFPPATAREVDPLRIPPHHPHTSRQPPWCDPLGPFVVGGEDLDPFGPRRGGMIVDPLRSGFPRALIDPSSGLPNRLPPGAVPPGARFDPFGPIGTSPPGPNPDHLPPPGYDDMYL

B1: human PI31 D197A point mutant (natural protein)
chain: T1 chain with D197A
[1]
  inhibition of β5-specific peptide hydrolysis by 20S (143 nM 20S, 1.4 μM PI31) (times less well than wildtype hPI31): 3

B2: recombinant wildtype human PI31 (Proteasome Inhibitor of 31,000 Da), Q92530 1-271 (natural protein)
chain: T1 chain
[2]
  [monomer]/[M]T ratio: 0.32
  dimer counts (mass photometry): 2060 counts
  monomer counts (mass photometry): 2180 counts
  stoichiometry N: 2
